Source: the supplement of paper PMC7877785
± gives the uncertainty stated by the source.

Assay: self-splicing fitness, log relative to wild type (ln ratio); higher = more splicing; Tetrahymena group I intron in knt gene, E. coli kanamycin selection, DiMSum; sequences stand for … in CUCUCU…GGAGGGAAAAGUUAUCAGGCAUGCACCUGGUAGCUAGUCUUUAAACCAAUAGAUUGCAUCGGUUUAAAAGGCAAGACCGUCAAAUUGCGGGAAAGGGGUCAACAGCCGUUCAGUACCAAGUCUCAGGGGAAACUUUGAGAUGGCCUUGCAAAGGGUAUGGUAAUAAGCUGACGGACAUGGUCCUAACCACGCAGCCAAGUCCUAAGUCAACAGAUCUUCUGUUGAUAUGGAUGCAGUUCACAGACUAAAUGUCGGUCGGGGAAGAUGUAUUCUUCUCAUAAGAUAUAGUCGGACCUCUCCUUAAUGGGAGCUAGCGGAUGAAGUGAUGCAACACUGGAGCCGCUGGGAACUAAUUUGUAUGCGAAAGUAUAUUGAUUAGUUUUGGAGUACUCGUGGUCG
Outline: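 DiMSum derived fitness as the error-weighted combination of fold changes across replicates, kanamycin versus no kanamycin, normalised to wild type. E. coli BL21(DE3) held the library, which randomised all eight P1ex-region intron nucleotides within the knt kanamycin-resistance gene on pET-22b(+). Six replicate transformations grew overnight at 37°C or 30°C on LB agar with or without 25 μg/mL kanamycin, also containing 100 μg/mL carbenicillin, 50 μM IPTG and 0.2% rhamnose, and pooled colonies were amplicon-sequenced on an Illumina HiSeq 2500.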

CAUAAGCAAUAUUACGCAAA
self-splicing fitness (ln) (30 °C): -2.93 ± 0.44
self-splicing fitness (ln) (37 °C): -2.46 ± 0.41

CGCUAGCAAUAUUACGGGGG
self-splicing fitness (ln) (30 °C): -2.53 ± 0.14
self-splicing fitness (ln) (37 °C): -2.43 ± 0.16

CAUCAGCAAUAUUACGGUCU
self-splicing fitness (ln) (30 °C): -2.82 ± 0.1
self-splicing fitness (ln) (37 °C): -2.22 ± 0.15

GCACAGCAAUAUUACGGUCU
self-splicing fitness (ln) (30 °C): -0.685 ± 0.042
self-splicing fitness (ln) (37 °C): 0.63 ± 0.06

CCGCAGCAAUAUUACGCCGU
self-splicing fitness (ln) (30 °C): -3.34 ± 0.27
self-splicing fitness (ln) (37 °C): -2.26 ± 0.22

GGCCAGCAAUAUUACGUGUC
self-splicing fitness (ln) (30 °C): -3.2 ± 0.17
self-splicing fitness (ln) (37 °C): -1.41 ± 0.12

UUUGAGCAAUAUUACGAACG
self-splicing fitness (ln) (37 °C): -0.865 ± 0.26

UGCAAGCAAUAUUACGGAAC
self-splicing fitness (ln) (37 °C): -0.851 ± 0.25

CCCCAGCAAUAUUACGUGGU
self-splicing fitness (ln) (30 °C): -2.64 ± 0.1
self-splicing fitness (ln) (37 °C): -2.98 ± 0.2

AGCGAGCAAUAUUACGGUCA
self-splicing fitness (ln) (30 °C): -2.05 ± 0.12
self-splicing fitness (ln) (37 °C): -0.626 ± 0.11

GCGGAGCAAUAUUACGGCCU
self-splicing fitness (ln) (37 °C): 0.0586 ± 0.34

AACCAGCAAUAUUACGGACG
self-splicing fitness (ln) (30 °C): 0.131 ± 0.059
self-splicing fitness (ln) (37 °C): -0.143 ± 0.07

CUCUAGCAAUAUUACGCCAA
self-splicing fitness (ln) (30 °C): -2.35 ± 0.47
self-splicing fitness (ln) (37 °C): -2.31 ± 0.45

CCCCAGCAAUAUUACGCACG
self-splicing fitness (ln) (30 °C): -2.64 ± 0.11
self-splicing fitness (ln) (37 °C): -2.2 ± 0.17

UGCCAGCAAUAUUACGCUUC
self-splicing fitness (ln) (30 °C): -3.19 ± 0.23
self-splicing fitness (ln) (37 °C): -1.86 ± 0.22

ACGCAGCAAUAUUACGAUGG
self-splicing fitness (ln) (30 °C): -1.82 ± 0.097
self-splicing fitness (ln) (37 °C): -1.59 ± 0.13

CUAGAGCAAUAUUACGGAUC
self-splicing fitness (ln) (30 °C): -3.28 ± 0.15
self-splicing fitness (ln) (37 °C): -3.06 ± 0.4

CAAUAGCAAUAUUACGUCUC
self-splicing fitness (ln) (30 °C): -2.8 ± 0.18
self-splicing fitness (ln) (37 °C): -3.4 ± 0.33

GUGCAGCAAUAUUACGCUUU
self-splicing fitness (ln) (30 °C): -1.26 ± 0.066
self-splicing fitness (ln) (37 °C): -0.18 ± 0.074

AGGCAGCAAUAUUACGCUCC
self-splicing fitness (ln) (30 °C): -3.69 ± 0.4
self-splicing fitness (ln) (37 °C): -2.01 ± 0.33

CUUCAGCAAUAUUACGACAG
self-splicing fitness (ln) (30 °C): -0.695 ± 0.069
self-splicing fitness (ln) (37 °C): -0.281 ± 0.093

AGACAGCAAUAUUACGAAGG
self-splicing fitness (ln) (30 °C): -3.88 ± 0.18
self-splicing fitness (ln) (37 °C): -2.75 ± 0.23

GCACAGCAAUAUUACGCAGA
self-splicing fitness (ln) (30 °C): -3.16 ± 0.28
self-splicing fitness (ln) (37 °C): -3.06 ± 0.29

ACUAAGCAAUAUUACGAAGG
self-splicing fitness (ln) (30 °C): -1.51 ± 0.087
self-splicing fitness (ln) (37 °C): -0.966 ± 0.12

CGAAAGCAAUAUUACGGGGA
self-splicing fitness (ln) (30 °C): -3.09 ± 0.31
self-splicing fitness (ln) (37 °C): -1.85 ± 0.2

CAUUAGCAAUAUUACGAUCG
self-splicing fitness (ln) (30 °C): 0.173 ± 0.082
self-splicing fitness (ln) (37 °C): 0.274 ± 0.12

CGUAAGCAAUAUUACGCACG
self-splicing fitness (ln) (30 °C): -1.76 ± 0.14
self-splicing fitness (ln) (37 °C): -1.06 ± 0.17

GGUGAGCAAUAUUACGGAUA
self-splicing fitness (ln) (30 °C): -2.24 ± 0.18
self-splicing fitness (ln) (37 °C): -1.88 ± 0.22

GAGCAGCAAUAUUACGUACG
self-splicing fitness (ln) (30 °C): -3.24 ± 0.21
self-splicing fitness (ln) (37 °C): -1.38 ± 0.17

UCCUAGCAAUAUUACGCACU
self-splicing fitness (ln) (30 °C): -1.17 ± 0.12
self-splicing fitness (ln) (37 °C): -0.784 ± 0.12

CAUGAGCAAUAUUACGGUGG
self-splicing fitness (ln) (30 °C): -1.49 ± 0.078
self-splicing fitness (ln) (37 °C): -0.665 ± 0.088

CAGAAGCAAUAUUACGAACA
self-splicing fitness (ln) (30 °C): -1.81 ± 0.18
self-splicing fitness (ln) (37 °C): -0.783 ± 0.17

ACAUAGCAAUAUUACGUGAC
self-splicing fitness (ln) (30 °C): -3.15 ± 0.15
self-splicing fitness (ln) (37 °C): -2.16 ± 0.15

GGCCAGCAAUAUUACGGCCU
self-splicing fitness (ln) (30 °C): -3.58 ± 0.23
self-splicing fitness (ln) (37 °C): -2.42 ± 0.27

UUGUAGCAAUAUUACGACAA
self-splicing fitness (ln) (30 °C): -0.0967 ± 0.15
self-splicing fitness (ln) (37 °C): -0.283 ± 0.15

ACAAAGCAAUAUUACGGAUU
self-splicing fitness (ln) (30 °C): -2.49 ± 0.085
self-splicing fitness (ln) (37 °C): -0.946 ± 0.081

GAUAAGCAAUAUUACGGCUC
self-splicing fitness (ln) (30 °C): -0.362 ± 0.17
self-splicing fitness (ln) (37 °C): 0.29 ± 0.2

CGAAAGCAAUAUUACGCGGC
self-splicing fitness (ln) (30 °C): -2.81 ± 0.3
self-splicing fitness (ln) (37 °C): -2.38 ± 0.31
